# Measured values taken from the supplement of paper PMC10567573.
# B1: MTMR15 (parent)
# chain: FSPDFTLRNTLKSTSEDSLVKQEC
# B2: RIPK4 (parent)
# chain: RERMELLEEAKKMEMAKFRYILPV
# Variants of: B1
# Assay: protein stability index of a GFP-peptide fusion (GPS, HEK-293T) (PSI 1-6); higher = more stable
# Conditions: c terminus: a fixed tail appended
# 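Further: lentivirally expressed fusions sorted by FACS into six bins by GFP to DsRed ratio, PSI derived from sequencing read proportions per bin multiplied by bin number.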
row,Variant,protein stability index
1,F1P,5.1
2,F1E,5.32
3,F1K,5
4,F1T,5.28
5,F1Y,2.04
6,F1N,5.19
7,F1G,5.09
8,F1Q,4.96
9,F1I,4.71
10,F1S,4.81
11,F1C,4.17
12,F1M,4.87
13,F1R,4.98
14,F1V,4.83
15,F1H,4.96
16,F1A,3.9
17,F1D,5.25
18,F1L,5.21
19,F1W,4.39
20,N9I,2.41
21,N9D,1.54
22,N9M,2.64
23,N9E,1.72
24,N9W,2.62
25,N9F,2.7
26,N9V,2.18

row,Variant,protein stability index
1,N9H,1.57
2,N9G,1.93
3,N9Q,1.96
4,N9Y,3.7
5,N9C,2.35
6,N9A,1.67
7,N9L,2.02
8,N9R,2.62
9,N9K,2.11
10,N9P,1.82
11,N9T,2.09
12,N9S,2.34
13,T6W,1.84
14,T6F,1.84
15,T6A,1.72
16,T6Q,2.24
17,T6I,3.13
18,T6E,3.39
19,T6N,1.77
20,T6V,1.82
21,T6H,1.45
22,T6G,2.63
23,T6R,1.77
24,T6S,2.27
25,T6C,2.73
26,T6L,2.8

row,Variant,protein stability index
1,T6K,2.01
2,T6M,1.92
3,T6D,2.7
4,T6Y,2.46
5,T6P,1.92
6,L7Y,2.27
7,L7A,1.99
8,L7I,2.3
9,L7T,2.75
10,L7N,1.91
11,L7W,2.16
12,L7V,1.83
13,L7S,2.08
14,L7G,2.48
15,L7C,2.25
16,L7P,2.54
17,L7F,2.04
18,L7E,2.99
19,L7Q,2.16
20,L7M,3.06
21,L7H,2.15
22,L7D,3.03
23,L7K,2.39
24,L7R,2.56
25,S2P,2.9
26,S2G,2.48

row,Variant,protein stability index
1,S2V,2.88
2,S2M,3.69
3,S2N,3.68
4,S2C,2.19
5,S2F,4.04
6,S2R,4.02
7,S2I,1.92
8,S2W,3.6
9,S2L,3.19
10,S2E,4.8
11,S2Y,4.52
12,S2K,4.27
13,S2A,2.08
14,S2H,2.55
15,S2Q,3.32
16,S2D,5
17,S2T,2.23
18,F5W,3.6
19,F5S,3.19
20,F5L,3.54
21,F5R,3.26
22,F5Q,3.5
23,F5E,4.83
24,F5A,3.75
25,F5T,3.17
26,F5C,3.42

row,Variant,protein stability index
1,F5H,3.52
2,F5N,3.82
3,F5K,3.79
4,F5G,1.99
5,F5D,4.35
6,F5I,3.65
7,F5V,3.56
8,F5P,3.59
9,F5M,3.62
10,F5Y,2.61
11,T10F,2.7
12,T10G,2.03
13,T10E,2.37
14,T10A,2.16
15,T10C,2.14
16,T10I,2.64
17,T10D,1.99
18,T10H,3.86
19,T10K,1.72
20,R8W,2.17
21,R8E,3.28
22,R8C,2.75
23,R8T,1.73
24,R8A,2.01
25,R8L,2.36
26,R8V,2.14

row,Variant,protein stability index
1,R8S,1.9
2,R8N,1.58
3,R8P,2.67
4,R8G,1.79
5,R8K,1.7
6,R8I,2.88
7,R8Y,2.44
8,R8F,1.89
9,R8M,1.77
10,R8Q,2.62
11,R8D,2.68
12,R8H,1.89
13,P3E,3.14
14,P3V,2.58
15,P3S,2.67
16,P3K,2.26
17,P3A,1.97
18,P3R,1.98
19,P3I,2.44
20,P3Y,2.76
21,P3Q,2.83
22,P3C,2.64
23,P3L,2.24
24,P3N,3.08
25,P3D,3.91
26,P3W,1.97

row,Variant,protein stability index
1,P3G,2.27
2,P3H,3.05
3,P3M,1.99
4,P3F,2.83
5,P3T,2.76
6,D4R,2.65
7,D4S,1.9
8,D4C,1.78
9,D4M,1.61
10,D4P,4
11,D4N,2.23
12,D4W,1.96
13,D4K,2.23
14,D4F,1.53
15,D4G,2.65
16,D4L,1.94
17,D4V,2.01
18,D4Q,1.45
19,D4A,2.44
20,D4E,1.94
21,D4T,2.07
22,D4H,1.95
23,D4I,2.05
24,D4Y,3.03

# Variants of: B2
# Assay: as above
# Conditions: c terminus: a fixed tail appended
row,Variant,protein stability index
1,R19E,3.28
2,R19S,2.86
3,R19C,2.51
4,R19A,1.96
5,R19T,2.67
6,R19F,1.15
7,R19K,3.04
8,R19I,1.27
9,R19H,2.6
10,R19L,2.14
11,R19Q,3.65
12,R19G,3.03
13,R19Y,2.38
14,R19M,1.97
15,R19D,3.47
16,R19P,2.13
17,R19N,2.94
18,F18A,3.16
19,F18Q,3.61
20,F18N,4.03
21,F18I,2.79
22,F18E,3.55
23,F18P,3.86
24,F18C,2.75
25,F18K,4.06
26,F18T,3.81

row,Variant,protein stability index
1,F18M,2.75
2,F18G,3.69
3,P23K,1.83
4,P23G,1.95
5,P23H,2.9
6,P23Q,1.69
7,P23I,2.09
8,P23R,3.69
9,P23D,2.03
10,P23M,2
11,P23C,3.02
12,P23S,3.96
13,P23V,2.29
14,P23E,2.7
15,P23N,1.63
16,V24S,3.7
17,V24E,4.32
18,V24H,3.24
19,V24F,3.16
20,V24D,3.64
21,V24T,3.78
22,V24M,3.68
23,V24R,3.65
24,V24K,3.58
25,A16P,3.49
26,A16K,3.8

row,Variant,protein stability index
1,A16V,3.03
2,A16G,3.31
3,A16E,2.9
4,A16H,4.27
5,A16Q,3.62
6,A16C,2.54
7,A16Y,3.32
8,A16F,2.29
9,A16W,2.58
10,A16I,3.02
11,A16T,2.85
12,A16N,4.29
13,E14T,2.65
14,E14W,2.92
15,E14R,2.06
16,E14C,3.63
17,E14F,1.86
18,E14V,1.71
19,E14K,2.21
20,E14D,3.8
21,E14G,2.44
22,E14N,2.79
23,E14A,2.78
24,E14P,3.29
25,E14L,2.44
26,E14Q,3.12

row,Variant,protein stability index
1,E14I,2.16
2,E14Y,2.03
3,E14S,2.86
4,E14M,2.89
5,I21N,3.85
6,I21K,3.45
7,I21G,3.68
8,I21Y,2.18
9,I21W,2.05
10,I21R,3.2
11,I21E,4.11
12,I21F,4.25
13,I21H,2.94
14,I21L,3.42
15,K17Q,3.5
16,K17C,2.01
17,K17M,3.5
18,K17T,3.1
19,K17N,1.01
20,K17I,2.72
21,K17A,1.87
22,K17V,2.75
23,K17F,1.26
24,K17W,2.29
25,K17P,1.86
26,K17L,2.04

row,Variant,protein stability index
1,K17G,2.94
2,K17S,2.99
3,K17Y,2.8
4,K17H,2.68
5,K17D,2.84
6,M13T,3.06
7,M13Y,2.92
8,M13V,2.85
9,M13W,3.14
10,Y20G,3.74
11,Y20S,3.91
12,Y20L,2.03
13,Y20A,3.73
14,Y20P,3.57
15,Y20E,4.16
16,Y20T,3.4
17,Y20N,3.05
18,Y20V,2.59
19,Y20W,2.24
20,Y20F,2.27
21,Y20M,2.18
22,Y20C,2.67
23,Y20I,1.93
24,Y20H,2.83
25,Y20Q,2.34
26,Y20D,2.55

row,Variant,protein stability index
1,M15G,3.59
2,M15F,3.91
3,M15I,4.15
4,M15S,4.59
5,M15W,2
6,M15K,3.93
7,M15P,4.15
8,M15Q,3.34
9,M15E,4.61
10,M15V,3.02
11,M15Y,3.41
12,M15H,4.28
13,M15L,3.48
14,M15R,3.97
15,L22Q,3.69
16,L22S,3.28
17,L22N,3.07
18,L22P,4.95
19,L22I,5.51
20,L22W,2.53
21,L22R,4.07
22,L22K,4.1
23,L22A,4.27
24,L22M,3.57
